Assays:
Experiment in all cases: SPR, captured hENG-hFc, soluble BMP10; '-' = Binding undetectable
hENG(458-586)-hFc = biological target: T1, hENG(458-586)-hFc (human, UniProt P17813 458-586)
T1 construct: Expressed in COS cells, not purified; not shown: linker and human IgG1 Fc domain
T1 sequence: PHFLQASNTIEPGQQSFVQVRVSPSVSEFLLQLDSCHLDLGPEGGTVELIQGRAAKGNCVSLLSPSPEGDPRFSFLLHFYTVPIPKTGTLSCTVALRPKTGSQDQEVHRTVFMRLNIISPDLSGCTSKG
Description: (§1) SPR methodology was used to screen these hENG-hFc protein variants for high-affinity binding to human BMP9 and BMP10. In these experiments, captured hENG-hFc proteins were exposed to soluble BMP9 or BMP10 at 100 nM each.

hENG(438-586)-hFc = biological target: T2, hENG(438-586)-hFc (human, UniProt P17813 438-586)
T2 construct: HEK 293, purified; not shown: linker and human IgG1 Fc domain
T2 sequence: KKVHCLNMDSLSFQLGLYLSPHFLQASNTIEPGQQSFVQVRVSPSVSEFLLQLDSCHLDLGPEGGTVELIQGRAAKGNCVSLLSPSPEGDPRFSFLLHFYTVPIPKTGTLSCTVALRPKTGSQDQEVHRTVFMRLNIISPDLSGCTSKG
Description: as §1

hENG(360-586)-hFc = biological target: T3, hENG(360-586)-hFc (human, UniProt P17813 360-586)
T3 construct: HEK 293, purified; not shown: linker and human IgG1 Fc domain
T3 sequence: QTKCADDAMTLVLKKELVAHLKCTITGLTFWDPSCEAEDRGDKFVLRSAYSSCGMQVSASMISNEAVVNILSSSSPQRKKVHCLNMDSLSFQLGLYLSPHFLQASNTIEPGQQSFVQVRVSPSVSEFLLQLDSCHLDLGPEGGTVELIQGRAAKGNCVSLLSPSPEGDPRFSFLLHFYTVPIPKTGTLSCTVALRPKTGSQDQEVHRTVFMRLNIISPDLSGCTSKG
Description: as §1

hENG(133-346)-hFc = biological target: T4, hENG(133-346)-hFc (human, UniProt P17813 133-346)
T4 construct: HEK 293, purified; not shown: linker and human IgG1 Fc domain
T4 sequence: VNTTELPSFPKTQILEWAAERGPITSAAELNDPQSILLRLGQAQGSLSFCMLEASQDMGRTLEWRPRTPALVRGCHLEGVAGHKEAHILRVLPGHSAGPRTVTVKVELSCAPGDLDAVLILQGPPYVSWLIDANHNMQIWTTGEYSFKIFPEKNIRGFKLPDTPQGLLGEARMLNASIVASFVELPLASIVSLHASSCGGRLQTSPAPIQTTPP
Description: as §1

hENG(166-346)-hFc = biological target: T5, hENG(166-346)-hFc (human, UniProt P17813 166-346)
T5 construct: HEK 293, purified; not shown: linker and human IgG1 Fc domain
T5 sequence: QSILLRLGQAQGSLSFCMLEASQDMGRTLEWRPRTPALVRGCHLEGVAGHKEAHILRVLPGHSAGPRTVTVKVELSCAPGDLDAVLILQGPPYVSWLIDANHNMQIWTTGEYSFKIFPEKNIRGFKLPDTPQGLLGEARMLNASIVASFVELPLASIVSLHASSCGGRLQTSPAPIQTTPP
Description: as §1

hENG(458-581)-hFc = biological target: T6, hENG(458-581)-hFc (human, UniProt P17813 458-581)
T6 construct: Expressed in COS cells, not purified; not shown: linker and human IgG1 Fc domain
T6 sequence: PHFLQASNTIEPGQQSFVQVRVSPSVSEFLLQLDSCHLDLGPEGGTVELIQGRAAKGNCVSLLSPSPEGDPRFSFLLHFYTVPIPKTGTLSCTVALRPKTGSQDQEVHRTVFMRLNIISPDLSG
Description: as §1

hENG(26-329)-hFc = biological target: T7, hENG(26-329)-hFc (human, UniProt P17813 26-329)
T7 construct: HEK 293, purified; not shown: linker and human IgG1 Fc domain
T7 sequence: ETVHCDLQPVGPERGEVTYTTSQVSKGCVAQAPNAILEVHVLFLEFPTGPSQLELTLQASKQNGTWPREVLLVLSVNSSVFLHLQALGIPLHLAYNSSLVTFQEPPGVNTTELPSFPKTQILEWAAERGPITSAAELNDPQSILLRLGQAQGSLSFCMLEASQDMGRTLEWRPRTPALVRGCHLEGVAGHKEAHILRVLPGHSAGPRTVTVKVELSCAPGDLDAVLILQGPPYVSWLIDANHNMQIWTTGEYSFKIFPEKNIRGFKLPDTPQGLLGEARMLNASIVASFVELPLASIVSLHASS
Description: as §1

hENG(61-346)-hFc = biological target: T8, hENG(61-346)-hFc (human, UniProt P17813 61-346)
T8 construct: HEK 293, purified; not shown: linker and human IgG1 Fc domain
T8 sequence: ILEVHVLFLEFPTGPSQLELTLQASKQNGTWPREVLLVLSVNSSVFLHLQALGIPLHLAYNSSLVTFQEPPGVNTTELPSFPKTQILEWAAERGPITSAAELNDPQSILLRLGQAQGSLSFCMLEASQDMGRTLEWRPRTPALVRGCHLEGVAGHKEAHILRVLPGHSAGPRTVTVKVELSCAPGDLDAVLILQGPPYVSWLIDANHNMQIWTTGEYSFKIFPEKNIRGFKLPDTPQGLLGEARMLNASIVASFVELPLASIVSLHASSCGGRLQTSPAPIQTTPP
Description: as §1

hENG(26-257)-hFc = biological target: T9, hENG(26-257)-hFc (human, UniProt P17813 26-257)
T9 construct: HEK 293, purified; not shown: linker and human IgG1 Fc domain
T9 sequence: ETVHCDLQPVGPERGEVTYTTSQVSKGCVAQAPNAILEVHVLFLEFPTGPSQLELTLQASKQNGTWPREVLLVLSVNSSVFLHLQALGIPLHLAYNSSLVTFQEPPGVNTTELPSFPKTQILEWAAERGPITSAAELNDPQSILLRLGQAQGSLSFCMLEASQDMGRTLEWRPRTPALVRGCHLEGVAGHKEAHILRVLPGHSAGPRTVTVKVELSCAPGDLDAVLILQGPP
Description: as §1

Measured: binding result

B1: BMP10 (ligand)
chain: NAKGNYCKRTPLYIDFKEIGWDSWIIAPPGYEAYECRGVCNYPLAEHLTPTKHAIIQALVHLKNSQKASKACCVPTKLEPISILYLDKGVVTYKFKYEGMAVSECGCR
notes: also called hBMP-10; hBMP10
no binding (tested: 100 nM): all assays above

From US20200087367A1 (ACCELERON PHARMA, published 2020)
